Test results from US20260217779.
Changes are numbered by the printed parent chain.

Assays:
[1] = molecular target: T1, hITIP0031-G1T4k.one//VHn-G1T4h.one.H435R
T1 chain 1: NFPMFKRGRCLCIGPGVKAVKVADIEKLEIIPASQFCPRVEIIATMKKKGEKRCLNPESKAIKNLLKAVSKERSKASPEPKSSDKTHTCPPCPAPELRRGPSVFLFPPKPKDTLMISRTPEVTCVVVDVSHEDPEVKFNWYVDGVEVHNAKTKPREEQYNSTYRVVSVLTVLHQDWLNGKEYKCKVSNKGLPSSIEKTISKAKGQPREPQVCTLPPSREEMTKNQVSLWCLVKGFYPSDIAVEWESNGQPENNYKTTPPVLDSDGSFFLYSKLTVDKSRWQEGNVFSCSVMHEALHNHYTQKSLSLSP
T1 chain 2: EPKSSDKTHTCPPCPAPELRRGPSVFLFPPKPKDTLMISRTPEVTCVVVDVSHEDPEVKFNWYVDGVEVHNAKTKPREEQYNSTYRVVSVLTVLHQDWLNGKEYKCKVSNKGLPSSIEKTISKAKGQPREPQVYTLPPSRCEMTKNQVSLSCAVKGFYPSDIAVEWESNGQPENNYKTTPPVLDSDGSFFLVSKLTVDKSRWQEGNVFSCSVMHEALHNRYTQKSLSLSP

[2] = molecular target: T2, hITIP0030-G1T4k.one//VHn-G1T4h.one.H435R
T2 chain 1: T1 chain 1 with N1M
T2 chain 2: T1 chain 2

[3] = molecular target: T3, hCXCL11-G1T4k.one//VHn-G1T4h.one.H435R
T3 chain 1: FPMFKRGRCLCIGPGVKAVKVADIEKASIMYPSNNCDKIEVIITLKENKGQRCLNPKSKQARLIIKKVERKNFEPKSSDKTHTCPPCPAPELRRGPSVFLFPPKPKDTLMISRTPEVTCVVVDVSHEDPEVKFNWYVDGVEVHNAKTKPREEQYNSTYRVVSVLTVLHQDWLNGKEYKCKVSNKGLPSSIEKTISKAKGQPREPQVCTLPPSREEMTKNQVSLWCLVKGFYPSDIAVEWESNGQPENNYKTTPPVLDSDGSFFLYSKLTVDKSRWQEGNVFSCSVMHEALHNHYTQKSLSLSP
T3 chain 2: T1 chain 2

[4] = molecular target: T4, hITIP0023-G1T4k.one//VHn-G1T4h.one.H435R
T4 chain 1: T1 chain 1 with N1E
T4 chain 2: T1 chain 2

[5] = molecular target: T5, hCXCL11.0021-G1T4k.one//VHn-G1T4h.one.H435R
T5 chain 1: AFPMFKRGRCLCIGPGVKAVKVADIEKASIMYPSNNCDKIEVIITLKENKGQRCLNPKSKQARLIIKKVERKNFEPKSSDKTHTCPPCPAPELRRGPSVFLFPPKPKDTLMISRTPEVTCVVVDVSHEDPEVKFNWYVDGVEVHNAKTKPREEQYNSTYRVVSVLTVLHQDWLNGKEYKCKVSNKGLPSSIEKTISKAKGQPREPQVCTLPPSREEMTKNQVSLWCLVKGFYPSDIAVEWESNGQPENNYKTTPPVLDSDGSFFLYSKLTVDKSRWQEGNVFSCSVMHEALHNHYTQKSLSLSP
T5 chain 2: T1 chain 2

[6] = molecular target: T6, hITIP0037-G1T4k.one//VHn-G1T4h.one.H435R
T6 chain 1: T1 chain 1 with N1V
T6 chain 2: T1 chain 2

[7] = molecular target: T7, hITIP0035-G1T4k.one//VHn-G1T4h.one.H435R
T7 chain 1: T1 chain 1 with N1S
T7 chain 2: T1 chain 2

[8] = molecular target: T8, hCXCL11.0036-G1T4k.one//VHn-G1T4h.one.H435R
T8 chain 1: T5 chain 1 with A1T
T8 chain 2: T1 chain 2

B1: human dipeptidyl peptidase IV (human DPPIV, hDPPIV) (Biolegend, 764102) (protein)
chain: NKGTDDATADSRKTYTLTDYLKNTYRLKLYSLRWISDHEYLYKQENNILVFNAEYGNSSVFLENSTFDEFGHSINDYSISPDGQFILLEYNYVKQWRHSYTASYDIYDLNKRQLITEERIPNNTQWVTWSPVGHKLAYVWNNDIYVKIEPNLPSYRITWTGKEDIIYNGITDWVYEEEVFSAYSALWWSPNGTFLAYAQFNDTEVPLIEYSFYSDESLQYPKTVRVPYPKAGAVNPTVKFFVVNTDSLSSVTNATSIQITAPASMLIGDHYLCDVTWATQERISLQWLRRIQNYSVMDICDYDESSGRWNCLVARQHIEMSTTGWVGRFRPSEPHFTLDGNSFYKIISNEEGYRHICYFQIDKKDCTFITKGTWEVIGIEALTSDYLYYISNEYKGMPGGRNLYKIQLSDYTKVTCLSCELNPERCQYYSVSFSKEAKYYQLRCSGPGLPLYTLHSSVNDKGLRVLEDNSALDKMLQNVQMPSKKLDFIILNETKFWYQMILPPHFDKSKKYPLLLDVYAGPCSQKADTVFRLNWATYLASTENIIVASFDGRGSGYQGDKIMHAINRRLGTFEVEDQIEAARQFSKMGFVDNKRIAIWGWSYGGYVTSMVLGSGSGVFKCGIAVAPVSRWEYYDSVYTERYMGLPTPEDNLDHYRNSTVMSRAENFKQVEYLLIHGTADDNVHFQQSAQISKALVDVGVDFQAMWYTDEDHGIASSTAHQHIYTHMSHFIKQCFSLP
cleavage by hDPPIV (LC/MS mass) [1]: showed no mass change suggestive of peptide bond cleavage by hDPPIV treatment | cleavage by hDPPIV (LC/MS mass) [2]: showed no mass change suggestive of peptide bond cleavage by hDPPIV treatment | cleavage by hDPPIV (LC/MS mass) [3]: DPPIV treatment reduced each of the masses | cleavage by hDPPIV (LC/MS mass) [4]: showed no mass change suggestive of peptide bond cleavage by hDPPIV treatment | cleavage by hDPPIV (LC/MS mass) [5]: showed no mass change suggestive of peptide bond cleavage by hDPPIV treatment | cleavage by hDPPIV (LC/MS mass) [6]: showed no mass change suggestive of peptide bond cleavage by hDPPIV treatment | cleavage by hDPPIV (LC/MS mass) [7]: showed no mass change suggestive of peptide bond cleavage by hDPPIV treatment | cleavage by hDPPIV (LC/MS mass) [8]: showed no mass change suggestive of peptide bond cleavage by hDPPIV treatment
